Data from PMC10784507, “Disordered-to-ordered transitions in assembly factors allow the complex II catalytic subunit to switch binding partners” (Nature Communications, 2024).
Where a chain is given by its changes, count along the chain named. Each block holds one binder with its values, some of them ahead of it.

Columns and labels:
[1] = target: T1, holo-SDHA-SDHAF2 complex (preformed from purified proteins) (human, UniProt P31040 43-664; Q9NX18 37-166, covalently attached FAD (residue not stated)); experiment: pull-down; preformed holo-SDHA-SDHAF2 (2 µM, His6 on SDHA) incubated with SDHAF4 or its variants, with or without 5 mM fumarate, 30 min 25 °C, then held on Ni-NTA agarose; SDS-PAGE with Coomassie, western blot for the truncated variants; details: both partners purified
T1 construct: human SDHAF2, mature, residues 37-166; also called holo-SDHA-AF2; SDHA-AF2 complex; source: E. coli BL21(DE3) proteins, purified; not shown: His6, N-terminal, kept; His6, N-terminal, cleaved

[2] = target: the molecule itself; experiment: native gel or EMSA; purified His6-SDHAF4^30-108, dilution series from 5 mg/ml, on 10% native and 10% SDS gels
[3] = target: T2, holo-SDHA with covalently attached FAD (human, UniProt P31040 43-664, covalently attached FAD (residue not stated)); experiment: crystal structure; SDHA-AF2-AF4: holo-SDHA-SDHAF2 with His6-SDHAF4, 5 h at 4 °C, SEC; crystals in 0.2 M ammonium citrate tribasic pH 8.0, 20% PEG 3,350, 1 mM DTT, 25 °C; details: both partners purified
T2 construct: also called SDHA with covalent FAD; His6-SDHA; source: E. coli BL21(DE3), purified; covalent FAD formed in vitro (apo-SDHA with SDHAF2, FAD and fumarate) or by co-expression with SDHAF2; not shown: His6, N-terminal, kept

[4] = target: T3, Human SDHA-AF2 complex (co-expressed, purified) (human, UniProt P31040 43-664; Q9NX18 37-166, covalently attached FAD (residue not stated)); experiment: as above; details: both partners purified
T3 construct: human SDHAF2, mature, residues 37-166; also called holo-SDHA-SDHAF2 complex; holo-SDHA-AF2; not shown: His6, N-terminal, kept

[5] = target: T4, His6-apo-SDHA (human, UniProt P31040 43-664); experiment: pull-down; Ni-NTA pull-down, pairwise; His6-apo-SDHA (2.6 µM) with SDHAF2 (6.4 µM) or FLAG-SDHAF4 (8 µM), no FAD; 40 mM HEPES pH 7.5, 0.5 mM DTT, 30 min 25 °C; SDS-PAGE, Coomassie; details: both partners purified
T4 construct: the same molecule with 75 µM FAD added is the form with non-covalent FAD; also called His-SDHA; not shown: His6, N-terminal, kept

[6] = target: T2, holo-SDHA with covalently attached FAD; experiment: pull-down; preformed holo-SDHA-SDHAF2 (2 µM, His6 on SDHA) incubated with SDHAF4 or its variants, with or without 5 mM fumarate, 30 min 25 °C, then held on Ni-NTA agarose; SDS-PAGE with Coomassie, western blot for the truncated variants; details: both partners purified

T1 sequence (P31040 43-664, one chain of several): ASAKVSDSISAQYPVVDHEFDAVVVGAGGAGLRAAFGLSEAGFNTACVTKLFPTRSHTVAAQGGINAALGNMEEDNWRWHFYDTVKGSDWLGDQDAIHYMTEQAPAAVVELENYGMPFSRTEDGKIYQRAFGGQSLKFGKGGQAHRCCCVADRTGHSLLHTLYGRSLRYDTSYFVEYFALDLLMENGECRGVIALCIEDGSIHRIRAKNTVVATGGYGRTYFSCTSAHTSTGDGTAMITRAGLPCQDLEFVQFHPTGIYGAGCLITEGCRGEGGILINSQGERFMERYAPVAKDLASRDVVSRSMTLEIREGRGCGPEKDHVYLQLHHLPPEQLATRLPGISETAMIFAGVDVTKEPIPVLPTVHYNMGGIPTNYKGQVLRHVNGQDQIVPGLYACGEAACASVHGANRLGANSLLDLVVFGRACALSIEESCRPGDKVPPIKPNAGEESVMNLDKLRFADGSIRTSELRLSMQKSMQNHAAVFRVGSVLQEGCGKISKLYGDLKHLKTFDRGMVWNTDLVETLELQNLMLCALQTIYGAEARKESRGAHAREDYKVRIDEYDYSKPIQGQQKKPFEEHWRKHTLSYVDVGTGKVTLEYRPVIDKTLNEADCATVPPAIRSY
T2 sequence (P31040 43-664): as the sequence (P31040 43-664, one chain of several) above
T4 sequence (P31040 43-664): as the sequence (P31040 43-664, one chain of several) above
T3 sequence (P31040 43-664, one chain of several): as above

B2: SDHAF4^ΔF108 (natural protein, human, UniProt Q5VUM1 30-108, looked up)
chain: LRKTSSSQGGKSELVKQSLKKPKLPEGRFDAPEDSHLEKEPLEKFPDDVNPVTKEKGGPRGPEPTRYGDWERKGRCID
notes: human SDHAF4, residues 30-108 without the C-terminal F108, made by modification of the pQT-SDHAF4 parent vector; The pQT vector adds a TEV-cleavable His tag; source: E. coli BL21(DE3), purified
- binding result [1]: binds

B3: SDHAF4^56-108 (domain or fragment)
chain: not shown
notes: human SDHAF4, residues 56-108; also called truncated FLAG-SDHAF4 variant
- percent of SDHAF2 displaced from the SDHA-AF2 complex [1]: ~50%

B5: FLAG-SDHAF4 (mature, residues 20-108) (natural protein, human, UniProt Q5VUM1 20-108, looked up)
chain: AARSPLLCHSLRKTSSSQGGKSELVKQSLKKPKLPEGRFDAPEDSHLEKEPLEKFPDDVNPVTKEKGGPRGPEPTRYGDWERKGRCIDF
notes: human SDHAF4, mature protein, residues 20-108, codon-optimised synthetic gene in pST50Trc3-FLAG; also called full-length SDHAF4; wild-type SDHAF4; source: E. coli BL21(DE3), purified (DEAE-Sepharose, filtration)
- percent of SDHAF2 displaced from the SDHA-AF2 complex [1]: ~80%

B6: SDHAF4^D107A (natural protein, human, UniProt Q5VUM1 30-108, looked up)
chain: LRKTSSSQGGKSELVKQSLKKPKLPEGRFDAPEDSHLEKEPLEKFPDDVNPVTKEKGGPRGPEPTRYGDWERKGRCIAF
notes: human SDHAF4, residues 30-108, made by modification of the pQT-SDHAF4 parent vector; The pQT vector adds a TEV-cleavable His tag; source: E. coli BL21(DE3), purified
- binding result [1]: binds

B8: SDHAF4^D107N (natural protein, human, UniProt Q5VUM1 30-108, looked up)
chain: B6 chain with A78N
notes: as for B6
- binding result [1]: binds

B9: SDHAF4^D107T (natural protein)
chain: not shown
notes: as for B6
- binding result [1]: binds

B10: SDHAF4^F108A (natural protein, human, UniProt Q5VUM1 30-108, looked up)
chain: B6 chain with A78D, F79A
notes: as for B6
- binding result [1]: binds

More lines, main results first:

- percent of SDHAF2 displaced from the SDHA-AF2 complex [1]: ~50%
B1: SDHAF4^67-108 (domain or fragment)
chain: not shown
notes: human SDHAF4, residues 67-108; also called truncated FLAG-SDHAF4 variant

- percent of SDHAF2 displaced from the SDHA-AF2 complex [1]: ~50%
B4: SDHAF4^77-108 (domain or fragment)
chain: not shown
notes: human SDHAF4, residues 77-108; also called truncated FLAG-SDHAF4 variant

- binding result [3]: binds
- binding result [4]: binds
B7: His6-SDHAF4^30-108 (natural protein, human, UniProt Q5VUM1 30-108, looked up)
chain: B6 chain with A78D
notes: human SDHAF4, residues 30-108, in the pQT vector (pQT-SDHAF4); also called His-SDHAF4; purified SDHAF4; source: E. coli BL21(DE3), purified (Ni-NTA, SEC); not shown: His6, N-terminal, kept
- binding result [2]: binds

- binding result [5]: binds
- binding result [6]: binds
B11: SDHAF2 (residues 37-166, His6 tag removed with TEV protease) (natural protein, human, UniProt Q9NX18 37-166, looked up)
chain: GDSPTDSQKDMIEIPLPPWQERTDESIETKRARLLYESRKRGMLENCILLSLFAKEHLQHMTEKQLNLYDRLINEPSNDWDIYYWATEAKPAPEIFENEVMALLRDFAKNKNKEQRLRAPDLEYLFEKPR
notes: human SDHAF2, mature, residues 37-166; source: E. coli BL21(DE3), purified; His6 tag removed with TEV protease; not shown: His6, N-terminal, cleaved
